Test [1] addresses T1, cynomolgus monkey C1s (produced in house) (cynomolgus monkey, UniProt P09871 16-685 (human entry), limits assumed).
T1 construct: also called CyC1s
T1 chain: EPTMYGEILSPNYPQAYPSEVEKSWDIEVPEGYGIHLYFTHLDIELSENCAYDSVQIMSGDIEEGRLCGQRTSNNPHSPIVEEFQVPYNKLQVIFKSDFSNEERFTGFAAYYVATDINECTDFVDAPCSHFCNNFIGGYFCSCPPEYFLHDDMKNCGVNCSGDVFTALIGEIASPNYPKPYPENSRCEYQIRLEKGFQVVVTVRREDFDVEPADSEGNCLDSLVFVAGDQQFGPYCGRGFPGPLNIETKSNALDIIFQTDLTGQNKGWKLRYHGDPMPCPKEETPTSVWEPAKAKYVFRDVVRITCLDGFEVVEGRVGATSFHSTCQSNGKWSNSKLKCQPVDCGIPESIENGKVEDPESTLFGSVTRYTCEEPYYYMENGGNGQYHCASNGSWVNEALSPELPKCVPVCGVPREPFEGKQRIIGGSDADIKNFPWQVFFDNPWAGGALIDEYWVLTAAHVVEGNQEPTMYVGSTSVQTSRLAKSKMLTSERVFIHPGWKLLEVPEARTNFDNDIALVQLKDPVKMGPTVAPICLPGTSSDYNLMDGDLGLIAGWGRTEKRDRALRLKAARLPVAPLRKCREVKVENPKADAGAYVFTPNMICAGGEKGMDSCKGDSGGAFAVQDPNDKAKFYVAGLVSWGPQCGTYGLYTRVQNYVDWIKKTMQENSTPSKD
Description: BLI (Octet RED96e), antibody on AHC biosensor; C1s Species: Cyno Monkey; R^2 0.9997. The text has this: (§1) At last, analyte was dissociated in 1×KB for 360 sec. Data analysis was done using OCTET® Data Analysis HT Software (Sartorius AG).
On the technique in general: BLI is a label-free optical method that tracks binding on a fibre tip over time.

For test [2], the target named is T1, cynomolgus monkey C1s (produced in …). The test can be described thus: BLI (Octet RED96e), antibody on AHC biosensor; C1s Species: Cyno Monkey; R^2 0.9993.
Text: as §1

Test [3] concerns the target T2, human C1s mutant M5 (K336G) (human, UniProt P09871 16-688).
T2 construct: The entry is the mutant itself
T2 sequence: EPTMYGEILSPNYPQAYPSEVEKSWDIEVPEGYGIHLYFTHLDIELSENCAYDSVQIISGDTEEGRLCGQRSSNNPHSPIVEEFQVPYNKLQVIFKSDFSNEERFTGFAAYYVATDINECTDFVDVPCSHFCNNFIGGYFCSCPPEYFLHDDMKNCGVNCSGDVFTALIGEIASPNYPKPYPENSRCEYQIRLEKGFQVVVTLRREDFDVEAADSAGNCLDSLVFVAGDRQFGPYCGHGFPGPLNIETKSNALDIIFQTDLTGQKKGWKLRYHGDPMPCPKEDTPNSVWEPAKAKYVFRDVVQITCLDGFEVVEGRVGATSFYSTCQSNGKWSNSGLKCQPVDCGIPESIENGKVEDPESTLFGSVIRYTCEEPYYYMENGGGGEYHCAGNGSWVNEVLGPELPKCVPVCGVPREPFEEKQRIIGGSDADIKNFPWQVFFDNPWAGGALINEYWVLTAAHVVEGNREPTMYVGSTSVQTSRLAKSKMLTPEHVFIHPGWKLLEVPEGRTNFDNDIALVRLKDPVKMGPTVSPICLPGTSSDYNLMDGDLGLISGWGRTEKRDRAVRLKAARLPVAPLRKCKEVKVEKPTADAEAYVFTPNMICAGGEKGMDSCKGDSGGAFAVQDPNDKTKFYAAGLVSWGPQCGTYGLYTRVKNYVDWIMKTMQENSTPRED
Description: ELISA, plate coated with human C1s mutant M5: K336G, OD450nm; curve still rising at 1000 ng/ml, no upper plateau in the range. On the procedure: ELISA was carried out by first coating 96-well plates with 200 ng/well of full-length or truncated C1s proteins overnight. The next morning, plates were blocked with SuperBlock T20 blocking buffer (Thermo Scientific 37536) for 1 h with gentle shaking. Then, various concentrations of anti-C1s antibodies diluted in SuperBlock T20 blocking buffer were added to the plates and incubated for 1 h with gentle shaking. Mouse IgG (Sigma-Aldrich 15381) and human IgG1 (BioXCell BP0297) were used as negative controls. The plates were washed before incubating with HRP conjugated secondary antibodies diluted in SuperBlock T20 blocking buffer (goat anti-mouse IgG (H+L) cross-adsorbed secondary antibody HRP (Invitrogen G-21040) or goat anti-human IgG antibody, HRP conjugate (Millipore AP309P)) for 1 h with gentle shaking. At last, the plates were washed and color developed with ELISA liquid HRP substrate (Sigma-Aldrich), followed by stopping the reaction with addition of 1M H₂SO₄ in the same volume as the ELISA liquid substrate. Bound antibody was measured by absorbance at OD₄₅₀ₙₘ.
Binding of anti-C1s antibodies to mutants M1-M20 of human C1s was measured by ELISA as described in Example 4, and results are shown in FIGS. 6B-6U. […]
A general note: ELISA stands for enzyme-linked immunosorbent assay.

Test [4] addresses T1, cynomolgus monkey C1s (produced in …). The test can be described thus: BLI (Octet RED96e), antibody on AHC biosensor; C1s Species: Cyno Monkey; R^2 0.9996.
Text: as §1

Experimental findings from patent US20230051715A1 (MABWELL THERAPEUTICS, published 2023) are described below.

B1: Anti-C1s antibody hz2-7(H1L2) (antibody, V domains shown)
VH: EVQLLESGGGLVQPGGSLRLSCAASGFTFSNYFMNWVRQAPGKGLEWVSEIRLKFTNYATHYADSVKGRFTISRDDSKSTLYLQMNSLRAEDTAVYYCTRDYGSRNGYFDYWGQGTLVTVSS
VL: DIVMTQTPLSLPVTPGEPASISCRSSKSLLHSNGNTFLYWFLQKPGQSPQLLIYRMSNLASGVPDRFSGSGSGTDFTLKISRVEAEDVGVYYCMQHLEYPYTFGGGTKLEIKR
notes: Humanized, human IgG1 / kappa; also called hz2-7(1L2)
What is called Kd is the equilibrium constant for the complex coming apart. The koff is the first-order rate constant of dissociation. The kon is a measure of how fast the partners come together. Take B1: in test [1], the Kd amounted to 0.94 nM, the koff stood at 0.00023 s⁻¹ and the kon was found to be 250000 M⁻¹ s⁻¹.

B2: Anti-C1s antibody hz2-8 (H1L2 G80A/T82A) (antibody, V domains shown)
VH: QVQLVQSGAEVKKPGASVKVSCKASGFNIKEYYMHWVRQAPEQGLEWMGWIDPENADAIYAQKFQGRVTITADTSTNTAYMELSSLRSEDTAVYYCARSRLFFAYWGQGTLVTVSS
VL: DIQMTQSPKSLSASVGDRVTITCRASQDVRTALDWYQQKPGQSPKLLIYSASYRYSGVPSRFSGSGSGTDFTLTISSLQPEDFATYYCQQQYTTPYTFGQGTKLEIKR
notes: Humanized variant with G80A and T82A in HC CDR2 (already in the entry), human IgG1 / kappa
As usually defined, the EC50 is the midpoint of the concentration-response curve. Regarding B2, in test [2], binding was characterised by a dissociation constant (Kd) of 3.5 nM, the koff turned out to be 0.00081 s⁻¹ and the kon was 230000 M⁻¹ s⁻¹. The EC50 in test [3] turned out to be 0.468 µg/mL.

B3: Anti-C1s antibody 2-8 (antibody, V domains shown)
VH: EVQLQQSGAELVRPGALVKLSCKASGFNIKEYYMHWVKQRPEQGLEWIGWIDPENGDTIYDPKFQGKASITADTSSNTAYLQLSSLTSEDTAVYYCARSRLFFAYWGQGTLVTVSA
VL: DIVMTQSHKFMSTSVGDRVSFTCKASQDVRTAVDWYQQKPGQSPKLLIYSASYRYTGVPDRFTGTGSGTDFTFTISSVQAEDLAVYFCQQQYTTPYTFGGGTKLEIKT
notes: the HC/LC entries may hold it too; also called clone 2-8
In test [4], B3 registered a Kd of 1.1 nM, a koff of 0.00028 s⁻¹ and an association rate constant (kon) of 260000 M⁻¹ s⁻¹.
